Experimental data from paper PMC3501484.

Target: Flk1 (UniProt P35918)
Chain of UniProt P35918 (P35918 20-1345): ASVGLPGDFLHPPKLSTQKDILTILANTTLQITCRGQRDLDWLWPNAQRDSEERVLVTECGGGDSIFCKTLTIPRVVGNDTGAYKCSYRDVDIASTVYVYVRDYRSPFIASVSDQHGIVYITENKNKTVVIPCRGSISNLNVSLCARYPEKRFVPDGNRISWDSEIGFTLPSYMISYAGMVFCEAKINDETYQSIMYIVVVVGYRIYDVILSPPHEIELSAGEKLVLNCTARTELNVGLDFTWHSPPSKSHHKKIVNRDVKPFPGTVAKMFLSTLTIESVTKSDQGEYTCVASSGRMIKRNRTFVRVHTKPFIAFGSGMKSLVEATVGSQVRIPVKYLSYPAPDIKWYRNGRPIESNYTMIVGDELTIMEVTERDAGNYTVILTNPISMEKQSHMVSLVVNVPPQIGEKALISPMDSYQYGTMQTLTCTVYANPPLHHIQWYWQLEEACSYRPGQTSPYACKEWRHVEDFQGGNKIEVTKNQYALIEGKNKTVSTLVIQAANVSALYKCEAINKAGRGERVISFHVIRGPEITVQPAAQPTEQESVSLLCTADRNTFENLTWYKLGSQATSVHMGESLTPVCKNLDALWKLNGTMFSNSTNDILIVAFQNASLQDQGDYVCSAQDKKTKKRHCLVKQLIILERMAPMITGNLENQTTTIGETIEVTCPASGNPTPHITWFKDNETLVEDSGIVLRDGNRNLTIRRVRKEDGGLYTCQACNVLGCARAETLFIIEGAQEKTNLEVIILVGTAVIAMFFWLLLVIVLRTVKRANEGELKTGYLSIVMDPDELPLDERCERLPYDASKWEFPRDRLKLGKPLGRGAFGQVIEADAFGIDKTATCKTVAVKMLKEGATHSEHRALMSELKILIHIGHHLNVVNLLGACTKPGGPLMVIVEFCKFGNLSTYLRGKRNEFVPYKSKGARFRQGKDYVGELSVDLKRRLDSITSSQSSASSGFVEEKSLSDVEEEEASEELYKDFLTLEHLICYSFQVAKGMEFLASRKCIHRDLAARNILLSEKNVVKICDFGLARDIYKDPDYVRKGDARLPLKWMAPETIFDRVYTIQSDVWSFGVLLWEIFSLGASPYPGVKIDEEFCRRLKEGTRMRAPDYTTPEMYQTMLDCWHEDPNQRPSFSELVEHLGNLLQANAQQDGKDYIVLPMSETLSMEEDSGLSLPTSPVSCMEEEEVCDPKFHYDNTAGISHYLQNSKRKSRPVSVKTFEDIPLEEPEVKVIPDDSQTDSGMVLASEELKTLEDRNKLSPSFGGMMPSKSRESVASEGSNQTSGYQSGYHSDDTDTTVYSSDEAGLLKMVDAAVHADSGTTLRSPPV

3.9 kb Etv2 luciferase reporter (standardized to Renilla) in 293T cells cotransfected with the Flk1 expression vector, VEGF 50 ng/ml for 2, 6 or 18 hours: 15 fold
Substance: VEGF 165 (ligand)
